According to PMC10520629:

Experiments:
[1] = target: T1, full-length human HACE1 (HECT domain and Ankyrin repeat containing E3 Ubiquitin Protein Ligase 1), wild type, aa 1-909 (human), Q8IYU2; assay: SEC; gel filtration of purified full-length HACE1 (Superdex; 20 mM HEPES pH 8.0, 150 mM NaCl, 5% glycerol, 1 mM DTT); settings: remark: other sources report otherwise
T1 chain: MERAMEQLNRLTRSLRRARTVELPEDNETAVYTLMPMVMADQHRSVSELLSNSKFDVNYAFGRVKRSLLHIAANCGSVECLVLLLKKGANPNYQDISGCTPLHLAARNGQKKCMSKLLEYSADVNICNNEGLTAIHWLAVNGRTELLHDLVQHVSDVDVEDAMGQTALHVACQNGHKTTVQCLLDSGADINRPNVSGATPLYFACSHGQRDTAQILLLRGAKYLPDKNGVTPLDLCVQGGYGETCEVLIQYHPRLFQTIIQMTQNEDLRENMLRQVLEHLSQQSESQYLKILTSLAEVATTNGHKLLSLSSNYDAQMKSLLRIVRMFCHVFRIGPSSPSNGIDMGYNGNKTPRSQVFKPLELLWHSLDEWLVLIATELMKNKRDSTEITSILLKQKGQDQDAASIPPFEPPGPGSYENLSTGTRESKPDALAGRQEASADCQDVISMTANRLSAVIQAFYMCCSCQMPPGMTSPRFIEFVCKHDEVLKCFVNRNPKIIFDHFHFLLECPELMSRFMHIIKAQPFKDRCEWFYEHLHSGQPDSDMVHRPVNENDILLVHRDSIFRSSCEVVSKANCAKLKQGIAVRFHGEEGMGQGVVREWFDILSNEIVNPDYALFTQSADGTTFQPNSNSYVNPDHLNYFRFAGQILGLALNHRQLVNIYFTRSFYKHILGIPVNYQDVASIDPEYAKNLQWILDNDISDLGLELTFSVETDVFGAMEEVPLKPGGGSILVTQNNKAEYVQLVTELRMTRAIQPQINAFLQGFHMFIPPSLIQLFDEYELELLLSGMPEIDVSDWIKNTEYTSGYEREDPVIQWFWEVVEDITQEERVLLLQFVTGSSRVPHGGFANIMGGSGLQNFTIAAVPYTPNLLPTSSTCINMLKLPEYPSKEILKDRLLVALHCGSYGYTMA

[2] = target: T1, full-length human HACE1 (HECT domain …); assay: AUC; sedimentation velocity, 40 000 rpm, 20 °C, continuous c(s) distribution model; settings: remark: other sources report otherwise

B1: full-length human HACE1 (HECT domain and Ankyrin repeat containing E3 Ubiquitin Protein Ligase 1), wild type, aa 1-909, Q8IYU2 1-909 (enzyme)
chain: T1 chain
stoichiometry N [1]: 2 | percent of molecules as dimer or higher oligomers [2]: 79%
